PMC2795164, “VEZF1 Elements Mediate Protection from DNA Methylation”

Columns and labels:
SP1, recombinant = SP1, recombinant (Gallus gallus (chicken), UniProt A0A8V1A4P9 1-760); test: EMSA; EMSA buffer, salt, pH and temperature not given in the material; competitors at 50-fold molar excess; settings: protein: recombinant; label: 32P (probe); blunt
SP3, recombinant = SP3, recombinant (Gallus gallus (chicken), UniProt Q90WR8 1-771); test: as above; settings: protein: recombinant; label: 32P (probe); blunt
ZF5, recombinant [1] = target: T1, ZF5, recombinant (Gallus gallus (chicken), UniProt Q92010 1-448, R436A); test: EMSA; no specificity for the dG-dC string; EMSA buffer, salt, pH and temperature not given in the material; competitors at 50-fold molar excess; settings: protein: recombinant; label: 32P (probe); blunt
T1 sequence: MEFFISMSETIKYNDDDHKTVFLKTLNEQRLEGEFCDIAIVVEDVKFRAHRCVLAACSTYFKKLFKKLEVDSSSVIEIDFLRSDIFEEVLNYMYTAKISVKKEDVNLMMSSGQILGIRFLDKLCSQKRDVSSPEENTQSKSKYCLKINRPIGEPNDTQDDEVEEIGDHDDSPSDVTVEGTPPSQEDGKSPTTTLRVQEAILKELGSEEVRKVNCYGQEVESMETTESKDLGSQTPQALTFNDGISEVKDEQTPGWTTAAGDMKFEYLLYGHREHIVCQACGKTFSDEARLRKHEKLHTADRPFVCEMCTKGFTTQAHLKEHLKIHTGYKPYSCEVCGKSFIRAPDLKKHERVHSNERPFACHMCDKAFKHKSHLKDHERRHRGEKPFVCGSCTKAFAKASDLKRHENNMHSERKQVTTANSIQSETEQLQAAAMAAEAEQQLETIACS

VEZF1 (BGP1) [2] = target: T2, VEZF1 (BGP1) (Gallus gallus (chicken), UniProt I6LDD9 1-555); test: EMSA; EMSA buffer, salt, pH and temperature not given in the material; competitors at 50-fold molar excess; settings: protein: ivt; label: 32P (probe); blunt
T2 sequence: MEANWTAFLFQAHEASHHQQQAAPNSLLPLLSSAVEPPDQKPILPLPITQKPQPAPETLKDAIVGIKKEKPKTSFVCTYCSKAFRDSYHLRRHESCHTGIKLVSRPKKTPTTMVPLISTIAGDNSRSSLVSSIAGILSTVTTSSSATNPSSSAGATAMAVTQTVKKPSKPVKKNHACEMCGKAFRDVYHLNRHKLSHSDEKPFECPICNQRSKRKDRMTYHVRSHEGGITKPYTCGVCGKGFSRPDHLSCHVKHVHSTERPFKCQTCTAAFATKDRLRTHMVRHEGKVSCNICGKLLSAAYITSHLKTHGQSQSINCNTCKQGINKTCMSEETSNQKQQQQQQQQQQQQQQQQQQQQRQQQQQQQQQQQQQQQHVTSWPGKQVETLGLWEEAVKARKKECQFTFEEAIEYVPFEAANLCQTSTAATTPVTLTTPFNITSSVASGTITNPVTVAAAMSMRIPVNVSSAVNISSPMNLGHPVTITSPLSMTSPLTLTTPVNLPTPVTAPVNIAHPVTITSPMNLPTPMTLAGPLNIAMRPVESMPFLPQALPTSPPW

ZF5, recombinant [3] = target: T1, ZF5, recombinant; test: as above; settings: protein: recombinant; label: 32P (probe); blunt
VEZF1 (BGP1) [4] = target: T2, VEZF1 (BGP1); test: as above; settings: protein: ivt; label: 32P (probe); blunt; remark: listed apart in the source

Sequence of SP1, recombinant (A0A8V1A4P9 entry or part of it): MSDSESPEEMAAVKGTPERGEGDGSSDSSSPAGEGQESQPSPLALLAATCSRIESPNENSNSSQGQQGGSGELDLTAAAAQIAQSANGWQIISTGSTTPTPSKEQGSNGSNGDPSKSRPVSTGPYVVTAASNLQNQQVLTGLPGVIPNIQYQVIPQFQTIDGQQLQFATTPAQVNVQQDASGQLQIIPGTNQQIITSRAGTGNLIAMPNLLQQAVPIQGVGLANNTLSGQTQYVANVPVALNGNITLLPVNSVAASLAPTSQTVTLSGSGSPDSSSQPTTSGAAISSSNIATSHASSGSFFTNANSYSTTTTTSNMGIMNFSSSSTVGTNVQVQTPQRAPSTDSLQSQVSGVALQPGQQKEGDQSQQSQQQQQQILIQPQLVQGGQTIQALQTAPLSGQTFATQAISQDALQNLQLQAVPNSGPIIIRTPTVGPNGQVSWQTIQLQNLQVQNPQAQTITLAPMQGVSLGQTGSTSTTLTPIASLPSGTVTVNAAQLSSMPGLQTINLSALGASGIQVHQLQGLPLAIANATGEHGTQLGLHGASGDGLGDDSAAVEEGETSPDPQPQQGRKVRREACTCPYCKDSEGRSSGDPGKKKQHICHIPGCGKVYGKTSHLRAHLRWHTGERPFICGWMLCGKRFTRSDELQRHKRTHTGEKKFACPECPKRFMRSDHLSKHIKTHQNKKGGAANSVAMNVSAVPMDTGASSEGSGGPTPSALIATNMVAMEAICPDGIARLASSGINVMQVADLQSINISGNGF
Sequence of SP3, recombinant (Q90WR8 whole entry): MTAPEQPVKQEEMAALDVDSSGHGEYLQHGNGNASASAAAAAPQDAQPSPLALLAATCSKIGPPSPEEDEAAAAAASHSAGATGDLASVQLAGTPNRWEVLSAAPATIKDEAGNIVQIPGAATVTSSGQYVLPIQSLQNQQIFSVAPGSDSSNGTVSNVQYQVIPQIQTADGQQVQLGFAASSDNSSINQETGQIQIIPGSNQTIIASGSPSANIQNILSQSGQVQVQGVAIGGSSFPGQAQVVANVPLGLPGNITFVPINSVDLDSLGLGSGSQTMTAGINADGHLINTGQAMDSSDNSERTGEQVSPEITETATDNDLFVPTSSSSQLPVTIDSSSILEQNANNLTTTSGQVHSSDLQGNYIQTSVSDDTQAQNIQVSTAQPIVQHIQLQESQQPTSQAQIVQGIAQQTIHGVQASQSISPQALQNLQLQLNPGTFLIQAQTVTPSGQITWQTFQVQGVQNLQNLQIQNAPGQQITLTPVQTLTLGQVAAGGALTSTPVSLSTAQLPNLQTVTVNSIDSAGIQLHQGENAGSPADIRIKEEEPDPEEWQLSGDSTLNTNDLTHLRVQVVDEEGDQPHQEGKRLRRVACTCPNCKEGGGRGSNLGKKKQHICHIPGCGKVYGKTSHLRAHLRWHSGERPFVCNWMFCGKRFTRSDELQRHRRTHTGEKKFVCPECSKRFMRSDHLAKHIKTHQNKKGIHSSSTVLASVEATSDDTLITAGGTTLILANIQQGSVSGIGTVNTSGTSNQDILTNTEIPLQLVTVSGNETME

B1: HS4 FIII wt (dsDNA)
DNA 1: AGGCGCGCCCCGGTCCGGCGCTCCCCCCGCATCCCCGAGCCGGGGCGCGCCT
DNA 2: AGGCGCGCCCCGGCTCGGGGATGCGGGGGGAGCGCCGGACCGGGGCGCGCCT
binding result (SP1, recombinant): no binding
binding result (SP3, recombinant): no binding
binding result (ZF5, recombinant [1]): binds
binding signal (VEZF1 (BGP1) [2]): ~2 fold lower affinity than FI and betaA sites

B2: HS4 FI wt (dsDNA)
DNA 1: GGAGCTCACGGGGACAGCCCCCCCCCAAAGCCCCCAGGGA
DNA 2: TCCCTGGGGGCTTTGGGGGGGGGCTGTCCCCGTGAGCTCC
binding result (SP1, recombinant): binds
binding result (ZF5, recombinant [3]): no binding
binding result (SP3, recombinant): binds
binding result (VEZF1 (BGP1) [4]): binds

B3: glo wt (betaA-globin promoter, G16) (dsDNA)
DNA 1: AATTGCAGAGCTGGGAATCGGGGGGGGGGGGGGGGCGGGTGGTGGTGTGG
DNA 2: CCACACCACCACCCGCCCCCCCCCCCCCCCCGATTCCCAGCTCTGCAATT
binding result (SP1, recombinant): binds
binding result (SP3, recombinant): binds
binding result (VEZF1 (BGP1) [4]): binds

B4: HS4 FV wt (dsDNA)
DNA 1: CCTGCAGACACCTGGGGGGATACGGGGAAAAAGCTTTAGG
DNA 2: CCTAAAGCTTTTTCCCCGTATCCCCCCAGGTGTCTGCAGG
binding result (SP1, recombinant): no binding
binding result (SP3, recombinant): no binding
binding signal (VEZF1 (BGP1) [2]): ~5 fold lower affinity than FI and betaA sites
